The test system of the assay is human ovarian cancer cell line SKOV3. Kind of assay: Cell proliferation test by dispersing SKOV3 cells with growth factors (Experimental Example 4). It counts as cell-based. The conditions noted are these: 10 days. As to the method:
By a method similar to the preparation method of medium composition in Analysis Example 1, a medium composition containing 10 (v/v) % FBS, and 0.03 (w/v) % of low-molecular agar in DMEM (manufactured by Wako Pure Chemical Industries, Ltd.) was prepared.
Then, human ovarian cancer cell line SKOV3 (manufactured by DS PHARMA BIOMEDICAL CO., LTD.) was suspended in the above-mentioned medium composition containing low-molecular agar at 37,000 cells/mL, and dispensed to the wells of a 96 well flat plane ultra-low attachment surface microplate (manufactured by Corning Incorporated, #3474) at 135 μL per 1 well. The plate was stood in a CO2 incubator (37° C., 5% CO2), and a growth factor was added the next day. A similar operation was performed with 10 (v/v) % FBS-containing DMEM free of low-molecular agar. As a growth factor, human heparin bindability epithelial cell growth factor (hHB-EGF) (manufactured by PeproTech, Inc.) at a final concentration of 30 ng/mL or 100 ng/mL, human epithelial cell growth factor (hEGF) (manufactured by PeproTech, Inc.) and human transforming growth factor α (hTGFα) (manufactured by PeproTech, Inc.) each at a final concentration of 1 ng/mL, 3 ng/mL or 10 ng/mL were added by 15 μL per 1 well.
Successively, the plate was cultured in a standing state in a CO2 incubator (37° C., 5% CO2) for 10 days. As a negative control, DMEM in an amount equal to that of a growth factor was added. CellTiter-Glo Luminescent Cell Viability Assay (manufactured by Promega) (100 μL) was added to the cell culture medium after culturing for 10 days, stood for 10 min at room temperature, and the amount of luminescence was measured by a microplate reader (“FlexStation 3”, manufactured by Molecular Devices) and according to the protocol recommended by Promega. The amount of luminescence of the medium composition alone was subtracted, whereby the number of viable cells was measured.
The relative cell number when the amount of luminescence of the negative control is 1 was determined from the amount of luminescence (corresponding to the number of SKOV3 cells) after culturing for 10 days after the addition of the growth factor, and shown in Table 11.

B1: hHB-EGF: human heparin bindability epithelial cell growth factor (PeproTech) (protein, UniProt Q99075 63-148, looked up)
Heparin-binding EGF-like …: DLQEADLDLLRVTLSSKPQALATPNKEEHGKRKKKGKGLGKKRDPCLRKYKDFCIHGECKYVKELRAPSCICHPGYHGERCHGLSL
As to B1, the “relative cell number (negative control = 1)” value by setting is: (growth factor 30 ng/mL, low-molecular agar 0 (w/v)%) 1.358; (growth factor 30 ng/mL, low-molecular agar 0.03 (w/v)%) 1.774; (growth factor 100 ng/mL, low-molecular agar 0 (w/v)%) 1.451; (growth factor 100 ng/mL, low-molecular agar 0.03 (w/v)%) 1.748.

B2: hEGF: human epithelial cell growth factor (PeproTech) (protein, UniProt P01133 23-1207, looked up)
Pro-epidermal growth factor: PQHWSCPEGTLAGNGNSTCVGPAPFLIFSHGNSIFRIDTEGTNYEQLVVDAGVSVIMDFHYNEKRIYWVDLERQLLQRVFLNGSRQERVCNIEKNVSGMAINWINEEVIWSNQQEGIITVTDMKGNNSHILLSALKYPANVAVDPVERFIFWSSEVAGSLYRADLDGVGVKALLETSEKITAVSLDVLDKRLFWIQYNREGSNSLICSCDYDGGSVHISKHPTQHNLFAMSLFGDRIFYSTWKMKTIWIANKHTGKDMVRINLHSSFVPLGELKVVHPLAQPKAEDDTWEPEQKLCKLRKGNCSSTVCGQDLQSHLCMCAEGYALSRDRKYCEDVNECAFWNHGCTLGCKNTPGSYYCTCPVGFVLLPDGKRCHQLVSCPRNVSECSHDCVLTSEGPLCFCPEGSVLERDGKTCSGCSSPDNGGCSQLCVPLSPVSWECDCFPGYDLQLDEKSCAASGPQPFLLFANSQDIRHMHFDGTDYGTLLSQQMGMVYALDHDPVENKIYFAHTALKWIERANMDGSQRERLIEEGVDVPEGLAVDWIGRRFYWTDRGKSLIGRSDLNGKRSKIITKENISQPRGIAVHPMAKRLFWTDTGINPRIESSSLQGLGRLVIASSDLIWPSGITIDFLTDKLYWCDAKQSVIEMANLDGSKRRRLTQNDVGHPFAVAVFEDYVWFSDWAMPSVMRVNKRTGKDRVRLQGSMLKPSSLVVVHPLAKPGADPCLYQNGGCEHICKKRLGTAWCSCREGFMKASDGKTCLALDGHQLLAGGEVDLKNQVTPLDILSKTRVSEDNITESQHMLVAEIMVSDQDDCAPVGCSMYARCISEGEDATCQCLKGFAGDGKLCSDIDECEMGVPVCPPASSKCINTEGGYVCRCSEGYQGDGIHCLDIDECQLGEHSCGENASCTNTEGGYTCMCAGRLSEPGLICPDSTPPPHLREDDHHYSVRNSDSECPLSHDGYCLHDGVCMYIEALDKYACNCVVGYIGERCQYRDLKWWELRHAGHGQQQKVIVVAVCVVVLVMLLLLSLWGAHYYRTQKLLSKNPKNPYEESSRDVRSRRPADTEDGMSSCPQPWFVVIKEHQDLKNGGQPVAGEDGQAADGSMQPTSWRQEPQLCGMGTEQGCWIPVSSDKGSCPQVMERSFHMPSYGTQTLEGGVEKPHSLLSANPLWQQRALDPPHQMELTQ
modifications: Pro-epidermal growth factor
In the case of B2, the “relative cell number (negative control = 1)” value runs as follows: (growth factor 1 ng/mL, low-molecular agar 0 (w/v)%) 1.380; (growth factor 1 ng/mL, low-molecular agar 0.03 (w/v)%) 1.413; (growth factor 3 ng/mL, low-molecular agar 0 (w/v)%) 1.392; (growth factor 3 ng/mL, low-molecular agar 0.03 (w/v)%) 1.745; (growth factor 10 ng/mL, low-molecular agar 0 (w/v)%) 1.678; (growth factor 10 ng/mL, low-molecular agar 0.03 (w/v)%) 1.984.

Values taken from patent US10914725B2, “Culture medium additive, culture medium composition, and method for culturing cells or tissue using same” (NISSAN CHEMICAL INDUSTRIES, LTD., priority 2015, dated 2021).
